# Test results taken from patent US20170355757A1 (Regeneron, published 2017).
# T1: monkey C5-mmh (monkey, UniProt P01031 19-1676 (human entry), limits assumed)
# T1 construct: Recombinant monkey C5 with a C-terminal myc-myc-hexahistidine tag
# T1 chain: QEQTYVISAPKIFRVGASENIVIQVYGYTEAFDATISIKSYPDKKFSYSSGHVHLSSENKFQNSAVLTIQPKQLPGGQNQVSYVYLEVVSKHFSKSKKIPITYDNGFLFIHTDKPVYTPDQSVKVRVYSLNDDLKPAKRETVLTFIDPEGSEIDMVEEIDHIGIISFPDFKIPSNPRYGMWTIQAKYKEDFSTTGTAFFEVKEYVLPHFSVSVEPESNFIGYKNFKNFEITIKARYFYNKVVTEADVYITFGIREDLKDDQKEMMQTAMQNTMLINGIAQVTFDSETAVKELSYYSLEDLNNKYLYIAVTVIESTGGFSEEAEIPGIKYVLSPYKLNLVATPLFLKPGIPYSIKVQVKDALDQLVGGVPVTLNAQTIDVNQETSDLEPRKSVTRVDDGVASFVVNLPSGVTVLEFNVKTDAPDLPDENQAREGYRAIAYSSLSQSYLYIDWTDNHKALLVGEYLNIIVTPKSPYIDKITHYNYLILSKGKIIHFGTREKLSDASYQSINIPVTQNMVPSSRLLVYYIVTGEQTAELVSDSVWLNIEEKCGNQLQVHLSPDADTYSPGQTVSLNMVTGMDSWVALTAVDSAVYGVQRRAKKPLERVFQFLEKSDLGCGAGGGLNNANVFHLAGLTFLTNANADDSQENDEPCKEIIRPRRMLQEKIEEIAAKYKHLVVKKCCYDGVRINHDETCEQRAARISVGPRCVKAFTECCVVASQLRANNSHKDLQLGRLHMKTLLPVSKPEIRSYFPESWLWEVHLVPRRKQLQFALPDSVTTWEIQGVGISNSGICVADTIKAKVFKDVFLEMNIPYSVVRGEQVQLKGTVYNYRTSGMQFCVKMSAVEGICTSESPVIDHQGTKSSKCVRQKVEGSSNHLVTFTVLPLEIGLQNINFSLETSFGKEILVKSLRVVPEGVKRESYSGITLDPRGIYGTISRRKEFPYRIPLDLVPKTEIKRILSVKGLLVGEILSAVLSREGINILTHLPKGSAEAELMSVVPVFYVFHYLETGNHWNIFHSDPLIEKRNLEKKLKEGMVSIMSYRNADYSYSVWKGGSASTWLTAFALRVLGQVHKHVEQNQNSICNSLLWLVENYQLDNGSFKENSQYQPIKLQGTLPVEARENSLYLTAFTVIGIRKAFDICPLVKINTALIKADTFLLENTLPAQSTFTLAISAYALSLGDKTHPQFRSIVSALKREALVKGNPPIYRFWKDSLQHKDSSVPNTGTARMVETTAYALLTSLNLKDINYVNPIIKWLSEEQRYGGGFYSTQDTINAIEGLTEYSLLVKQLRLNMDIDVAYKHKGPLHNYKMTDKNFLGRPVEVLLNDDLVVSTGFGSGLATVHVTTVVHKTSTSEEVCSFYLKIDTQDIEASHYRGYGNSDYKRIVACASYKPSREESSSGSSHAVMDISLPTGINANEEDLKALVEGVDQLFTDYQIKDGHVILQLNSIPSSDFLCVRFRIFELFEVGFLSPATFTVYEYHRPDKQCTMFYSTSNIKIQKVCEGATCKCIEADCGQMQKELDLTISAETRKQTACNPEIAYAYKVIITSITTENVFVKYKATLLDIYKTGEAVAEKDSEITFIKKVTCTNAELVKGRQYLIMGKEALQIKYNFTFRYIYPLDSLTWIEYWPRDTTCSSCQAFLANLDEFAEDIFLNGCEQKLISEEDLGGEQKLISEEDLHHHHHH
# B1: H4H12167P (antibody, human IgG4, V domains shown)
# VH: QVQLVESGGGLVKPGGSLRLSCAASGFTFSDSYMSWIRQAPGKGLEWISYIGSSGNTFYYADSVKGRFTISRDNANNLLYLQMTSLRAEDTAVYYCAREEGDFWSAVDSWGQGTLVTVSS
# VL: DIQLTQSPSFLSASVGDRVTITCWASQGISSYLAWYQQKPGKAPKLLIHTASTLQSGVPSRFSGSGSGTEFTLTISNLQPEDFATYYCQQLNSYPFTFGPGTKVDIK
# notes: Human IgG4 Fc with S108P hinge mutation (H4H)
# B2: H4H12163P (antibody, human IgG4, V domains shown)
# VH: EVQLVESGGDLVQPGGSLRLSCAASGFTFSSYAMNWVRQGPGKGLEWVSAISGRGDSTYYADSVKGRLTISRDNSKNTLYLQMNSLRAEDTAVYYCVKEGEQLVYWYFDLWGRGTLVTVSS
# VL: DIQMTQSPSSLSASVGDRVTITCRASQTISNFLHWYQQKPGKAPKLLIYAASSLQSGVPSRFSGSGSGTDFTLTISSLQPEDFSTYFCQQSYTTPLTFGGGTKVEIK
# notes: as for B1
# B3: H4H11683N (antibody, V domains shown)
# VH: QVQLVESGGGVVQPGRSLRLSCVASGFTFSSYGIHWVRQAPGKGLEWVAVIWDDGNNINYSDSVKGRFIISRDNSRKTVYLQMNSLRGEDTAVYYCARDAPIAPVPDYWGQGTLVTVSS
# VL: DIQMTQSPSTLSASVGDRVTITCRASQSISSWLAWYQQKPGKAPKLLIYKASSLDTGVPSRFSGSGSGTEFTLTISSLQPDDFATYYCQQYNTYSYTFGLGTKLEIK
# notes: also called H2M11683N
# B4: H4H12171P (antibody, human IgG4, V domains shown)
# VH: EVQLVESGGGVVRPGGSLRLSCAASGFTFDEYGMTWVRQVPGKGLEWVSGITWNGGFTDYTDSVKGRFTSSRDNAKNSLYLQMNSLRAEDTALYYCARDGYSSSWGAYDIWGQGTMVTVSS
# VL: DIQMTQSPSSLSASVGDRVTITCRASQSISTYLNWYQQKPGKAPKLLIYAASSLQSGVPLRFSGSGSGTDFTLTISSLQPEDFASYFCQQSYSTPYTFGQGTKLEIK
# notes: as for B1
# Target: T2, human C5 R885C-mmh (human, UniProt P01031 19-1676)
# T2 construct: also called human C5 variant R885C
# Test: SPR, mAb captured via anti-hFc, 25C
# Description: (§1) Equilibrium dissociation constants (KD values) for C5 binding to purified anti-C5 antibodies were determined using a real-time surface plasmon resonance biosensor assay on a Biacore T200 instrument. The Biacore sensor surface was derivatized by amine coupling with a monoclonal mouse anti-human Fc antibody (GE Healthcare, # BR-1008-39) to capture anti-C5 antibodies expressed with human Fc constant regions. Biacore binding studies were conducted in HBST running buffer (0.01M HEPES pH 7.4, 0.15M NaCl, 3 mM EDTA, 0.05% v/v Surfactant P20).
# (§2) Human C5 was obtained from a commercial source (EMD). Other C5 reagents were expressed with a C-terminal myc-myc-hexahistidine tag (subsequently referred to as C5-mmh). […] Association of all the C5 reagents to each of the captured monoclonal antibodies was monitored for 3 minutes and their dissociation in HBST running buffer was monitored for 8 minutes. All the binding kinetics experiments were performed at either 25° C. or 37° C. Kinetic association (kₐ) and dissociation (kd) rate constants were determined by fitting the real-time sensorgrams to a 1:1 binding model using Scrubber 2.0c curve fitting software. Binding dissociation equilibrium constants (KD) and dissociative half-lives (t %) were calculated from the kinetic rate constants as: KD (M)=kd/kₐ and t_{1/2} (min)=In2/(60×kd)
100 nM Human C5 R885C-mmh Bound (RU),Kd [nM],koff [s⁻¹],kon [M⁻¹ s⁻¹],t1/2 [min],Binder
163,0.413,0.000294,711000,39,B1
211,0.858,0.000432,504000,27,B2
116,0.479,0.000239,499000,48,B3
51,0.366,0.000139,379000,83,B4

# Target: T3, human C5 R885H-mmh (human, UniProt P01031 19-1676)
# T3 construct: also called human C5 variant R885H
# Test: SPR, mAb captured via anti-hFc, 25C
# Description: as §1, §2
100 nM Human C5 R885H-mmh Bound (RU),Kd [nM],koff [s⁻¹],kon [M⁻¹ s⁻¹],t1/2 [min],Binder
187,0.433,0.000298,689000,39,B1
214,0.646,0.000434,672000,27,B2
118,0.468,0.000246,526000,47,B3
51,0.216,0.000142,659000,81,B4

# Target: T4, human C5 (human, UniProt P01031 19-1676)
# T4 construct: Bought human C5 (EMD #204888, said elsewhere to be purified from plasma); also called hC5; complement component 5
# Test: SPR, mAb captured via anti-hFc, dissociation at pH7.4 vs pH6.0, 25C
# Description: Effect of pH on the rate of dissociation of recombinant human C5 bound to purified anti-C5 monoclonal antibodies was determined using a real-time surface plasmon resonance biosensor using a Biacore T200 instrument. The Biacore sensor surface was first derivatized by amine coupling with a monoclonal mouse anti-human Fc antibody (GE, # BR-1008-39) to capture anti-C5 monoclonal antibodies expressed with human IgG4 Fc. All Biacore binding studies were performed using two running buffers PBS-T, pH7.4 (0.01M Na₂HPO₄/NaH₂PO₄, 0.15M NaCl, 0.05% v/v Tween-20, adjusted to pH7.4) and PBS-T, pH6.0 (0.01M Na₂HPO₄/NaH₂PO₄, 0.15M NaCl, 0.05% v/v Tween-20, adjusted to pH6.0). […] Binding dissociative half-lives (t %) were calculated from kd as: […]
row,t1/2 Ratio pH7.4/pH6.0,Binder
1,0.6,B1
2,1.2,B2
3,2,B3
4,0.6,B4

# Target: T2, human C5 R885C-mmh
# Test: SPR, mAb captured via anti-hFc, 37C
# Outline: (§3)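 Antibodies captured on anti-human Fc surface in HBST (HEPES pH 7.4, 3 mM EDTA); C5 reagents (commercial human C5 or myc-myc-His-tagged variants) associated 3 min, dissociated 8 min, at 25 °C or 37 °C. Sensorgrams fitted 1:1; KD = kd/ka, t½ = ln2/(60×kd).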
100 nM Human C5 R885C-mmh Bound (RU),Kd [nM],koff [s⁻¹],kon [M⁻¹ s⁻¹],t1/2 [min],Binder
64,3.64,0.00249,684000,5,B1
83,4.97,0.00281,566000,4,B2
78,3.25,0.00143,438000,8,B3
78,2.01,0.000957,477000,12,B4

# Target: T3, human C5 R885H-mmh
# Test: SPR, mAb captured via anti-hFc, 37C
# Outline: as §3
100 nM Human C5 R885H-mmh Bound (RU),Kd [nM],koff [s⁻¹],kon [M⁻¹ s⁻¹],t1/2 [min],Binder
65,2.91,0.00257,881000,5,B1
85,4,0.0029,724000,4,B2
81,2.69,0.00147,548000,8,B3
80,1.63,0.000963,592000,12,B4

# Target: T1, monkey C5-mmh
# Test: SPR, mAb captured via anti-hFc, 37C
# Outline: as §3
100 nM monkey C5-mmh Bound (RU),Kd [nM],koff [s⁻¹],kon [M⁻¹ s⁻¹],t1/2 [min],Binder
146,0.539,0.000289,537000,40,B1
129,3.2,0.00125,390000,9,B2
303,2.16,0.00115,535000,10,B3
78,1.85,0.00103,556000,11,B4
